# Test results as given in patent US20070031331A1.
# What was measured:
# human CD20 (human) [1] = molecular target: human CD20 (human) (UniProt P11836); test: Scatchard analysis, cold antibody against 125I-2H7.v16 on WIL2-S cells, n=3
# human CD20 (human) [2] = molecular target: human CD20 (human) (UniProt P11836); test: cell-based or functional assay
# Chain of human CD20 (human) (P11836 whole entry): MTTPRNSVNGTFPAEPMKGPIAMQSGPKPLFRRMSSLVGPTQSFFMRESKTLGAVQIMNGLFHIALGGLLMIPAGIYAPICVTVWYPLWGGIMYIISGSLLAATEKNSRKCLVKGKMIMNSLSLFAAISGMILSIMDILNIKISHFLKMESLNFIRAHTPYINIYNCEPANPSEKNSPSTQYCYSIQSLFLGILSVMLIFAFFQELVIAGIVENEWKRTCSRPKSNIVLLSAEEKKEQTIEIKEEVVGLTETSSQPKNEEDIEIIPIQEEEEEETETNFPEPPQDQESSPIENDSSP
substance,measurement,setting,value
RITUXAN® (rituximab) (antibody),Kd,human CD20 (human) [1],0.99 nM
same,ADCC: EC50(variant)/EC50(2H7.v16),human CD20 (human) [2],5.3
same,ADCC: EC50(variant)/EC50(RITUXAN®),human CD20 (human) [2],1
same,CDC: EC50(variant)/EC50(RITUXAN®),human CD20 (human) [2],1
